A protein production outcome set (Wang et al. 2014)

Assay: label from the status in PepcDB records

Sequence: MEETPKTTLPHKFLKNILMLDVLKVRIYPNKEQEISLAKSFGCSRFVWNFYLNKTNTQYEETGKGMTYCQMAKDLTQLKKLSDYEWLQEPTAAVLQQSLKNLESAFKNFFSKRAGFPKFKSKHSKQSIRFPESCSIKDSGLKLPKLGIVKVSLSKKINSKIKSVTVSKTSTGKYFAALLFEAKDLTNNKQGKISGIDLGLTSLITVFDGETCYKVDPIKPTRKYAKRLRIRQKALSRKVKGSNNRRKAIKVVAKVHEKISNTRQDFLHKLSRKLVDDNQIIVAENLCVKGLARTKLAKSIHDAGFGMLLNFISYKLEREGGKFVQVDRFFPSSKLCSCCGHKNNLLNLSIREWICPSCQTTHDRDENASRNLRTEGIRILETNTAGHAEIQACGETVRLVGTCAKKRVSEKQESPATLLCG
- protein production: failed

Sequence: MEEWPALQWSQGTPASGPALQALEEYAFVPRDDESRQGIRTDALLVIRDGRLLYERYAGATGPQTPHLAWSASKSLLAVLLGVAFGEGRFQLQDPAAKFYPPLEAHPDITLADLLHWASGLDWQEDYEYAPLNSSVVAMLYTRGHRDMAAFTVQQAASGPPGQVFRYSSGDSNLLAASLRGMVGEGQYADYPWRALFEPLGITQAVWERDAAGTFVASSYLYLTARDLARIGLLMQRDGRWRDRQLLPKAWVEFCRTPFRGYRANQDVAVAGGHWWLNREVDGAPRPWPDAPADTYAALGHWGQALYVLPAQRLVIVRYGDDRDGSYQHNELLKRVLAAFATPEQPLEHHHHHH
- protein production: failed

Sequence: MEFGYIGLMVSVVLIGISVYGFLNSKNIVRIFLSSEILVNASILIVFSVSSLTNQVYLPIYFSLFAIGMALVEIVVAFAAIFLYYKNKGSLEVE
- protein production: failed

Sequence: MEFNLRCSESMPDFSRVGMMDEDIPNVRGRGPSQPRGFLRSQIRAPCALMKGLSDIDQEITMAFIKALAVQHQKRSLERRKIRKKINRILRRVIAISRELHTLNSHPGDWIELGISEFDRIPDCMMPILELAGQGVQLFYKSRRVS
- protein production: failed

Sequence: MEGFSPPINTAQVDAKTKLDEKVDYSNLPCPVLYEELNREATMALKPELFEGFRLDYNKSLNQKFFLSHSILMGPTEVPNPTPSSEIIKIPTANYDFGAGFIDPKLYLIGRITTDGRLNARAKFDLTDNFSVKANALLTDEEDKSQGHLVIDYKGSDYRTQLQLGNNSVYAANYIQHVTPHLSLGGEAFWLGQQLMSGVGYAARYETDKTVASGQIASTGVAVMNYVHKVSEKLSFATDFIYNYLSRDVTASVGYDLITRQSRLRGKVDSNGVVAAYLEEQLPIGLRFLLSAEVDHVKKDYKFGFGVNAF
- protein production: failed

Sequence: MEGITSFENLPEELKREILLRMSPNSLVTCSRVSKKLASMIRTKSFKELYLSRSMRCPRVLFAANGTITPHVLFTSFQEKEKPLLSSGEQRIITSLQGEFLFSPPVRGLICLVERESARIVICNPGTTKFLALPIVEADETTRIITHLGYDEQKDVFKVLCTRTKPETPHLVLTVGSGKEPWREIVCKFPHTVIGAGVFYRGTLYYLAAFHSKSIIMTFDVRSETFMPITSPDGVDLNQGSWRLVNYSQQGGFALVNESRGFIYQSNGGDAYLETWVWNVDTRKWSMNSILIRKWKDYAQDNEDYDYRFRGTQGTYELVFAPIRVKEDGSLTVILYNTDTQAFRRSKVQMMGEGHEFRFVDTFLDHVDSTLLI
- protein production: failed

Sequence: MEGKTLIVSVLIMSLFMAQNQVDANICCPSIQARTFYNACLFAVGSPSSCIRNSSCLDISESTCPRGYTNDILENTGDAVTEYCKLGCVSSVCGALTILQNSDASEIVNGEVEKCTMACSTVCTKGSMNAVENA
- protein production: failed

Sequence: MEGLAAFIIITLMIIIVPGPDFFVVMKNSITSGKGNGAMAALGITSGHVVYSLLAVFGIIFILANMYYVFVTIKILGAIYLIYLGIRSIISARQSMNFSTSQLKAQRITYLSSYRQGFFSTILNPKALLYYISILPQFLSTGEAVTSQIAILTAIVTTVILLWFIFCVYIFQYIKLLFTNRKIKAIFDYTVGAILIGLSLNLLLSKSS
- protein production: failed

Sequence: MEGNQAGSSLDSLIASFNKRIGELQELVIARNMYPASTIPDLSAIDTALSSMELQVQSIKDRLREETEAIPKAKKLIEASLKQQGKLQKMSIYAPSHFPDKATMLNSDLNRCLLQENAKQYEQHSTLSSLKFDEEAAVLPKEKKGRGSPPLWYITVEELNSLSSYMRGRLTLEKVNAAINDMASYAEANAHLIAASKQKLAENLWEKALKLRDIVTEQAVKGKHFFLETDMKGPSLKLDNTGKAILTVLRHLGRISETRIGQNRVIILMKPH
- protein production: failed

Sequence: MEGNSDSMILVTVNPKTKKTTMTSLERDILVKLSGSKTNDQTGYDAKLNAAYAAGGAKMAIMTVQDMLDIKIDKYVQINMEGLVQLVDAVGGITVTNHFDFPISIEEHEPEFTASVEPGTHKINGEQALVYSRMRYDDPDGDYGRQKRQREVISKVLKKILALDSVSKYRKILSAVSKNMQTNIEISSSTIPKLLGYSDALKSIRTYQLKGEGTTIDGGSYQLVTSKELLKAQNRIKGQLGLKKSTAENLKTTASLYENFYGGDTSIYDSSSSASDYSSSGNYSGSSSDYGSSSSYGSNSSSGSSSDYSGQNSYNQGNYQQPAAGTGIGNLEHHHHHH
- protein production: not failed

Sequence: MEGSTGFDGDATTFFAPDAVFGDRVRRFQEFLDTFTSYRDSVRSIQVYNSNNAANYNDDQDDADERDLLGDDDGDDLEKEKKAASSTSLNILPHRIIISLDDLREFDRSFWSGILVEPAYFIPPAEKALTDLADSMDDVPHPNASAVSSRHPWKLSFKGSFGAHALSPRTLTAQHLNKLVSVEGIVTKTSLVRPKLIRSVHYAAKTGRFHYRDYTDATTTLTTRIPTPAIYPTEDTEGNKLTTEYGYSTFIDHQRITVQEMPEMAPAGQLPRSIDVILDDDLVDKTKPGDRVNVVGVFKSLGAGGMNQSNSNTLIGFKTLILGNTVYPLHARSTGVAARQMLTDFDIRNINKLSKKKDIFDILSQSLAPSIYGHDHIKKAILLMLMGGVEKNLENGSHLRGDINILMVGDPSTAKSQLLRFVLNTASLAIATTGRGSSGVGLTAAVTTDRETGERRLEAGAMVLADRGVVCIDEFDKMTDVDRVAIHEVMEQQTVTIAKAGIHTTLNARCSVIAAANPVFGQYDVNRDPHQNIALPDSLLSRFDLLFVVTDDINEIRDRSISEHVLRTHRYLPPGYLEGEPVRERLNLSLAVGEDADINPEEHSNSGAGVENEGEDDEDHVFEKFNPLLQAGAKLAKNKGNYNGTEIPKLVTIPFLRKYVQYAKERVIPQLTQEAINVIVKNYTDLRNDDNTKKSPITARTLETLIRLATAHAKVRLSKTVNKVDAKVAANLLRFALLGEDIGNDIDEEESEYEEALSKRSPQKSPKKRQRVRQPASNSGSPIKSTPRRSTASSVNATPSSARRILRFQDDEQNAGEDDNDIMSPLPADEEAELQRRLQLGLRVSPRRREHLHAPEEGSSGPLTEVGTPRLPNVSSAGQDDEQQQSVISFDNVEPGTISTGRLSLISGIIARLMQTEIFEEESYPVASLFERINEELPEEEKFSAQEYLAGLKIMSDRNNLMVADDKVWRV
- protein production: failed

Sequence: MEGTLSFVSGFAPAVYRRELFRHRCVTTAPEARAWPRLGLLRANSGARLSRVDITPEIYKRLVSMAKRTEGNFSAVAGAILESYLTAATNRDLRAVIFDMDGVLCDSERLSRAAGVEYFRRYHGVWPTEKDFADFAGTGEAAFLSGVARRYSVKDFDVNKAKEGFFNIYVNEYVSALEPFEGVREFIQQIKTMGLKTALASSADAIKVHANLSAIGFERDMFDFVTRSDEIANKKPAPDIFLAAAEGLGVPPESCVVIEDAPAGVLAAKRARMRCVAVATSVSAQLLWDAGADIVRPAPQYIMLDDIVITDDADASAPASASQE
- protein production: failed

Sequence: MEGYSRNGEISPKLLDLMIPQERRNWFHDEKNSVFKTEEKKLELKLGPPGEEDDDESMIRHMKKEPKDKSILSLAGKYFSPSSTKTTSHKRTAPGPVVGWPPVRSFRKNLASGSSSKLGNDSTTSNGVTLKNQKCDAAAKTTEPKRQGGMFVKINMYGVPIGRKVDLSAHNSYEQLSFTVDKLFRGLLAAQRDFPSSIEDEKPITGLLDGNGEYTLTYEDNEGDKMLVGDVPWQMFVSSVKRLRVIKTSEISSALTYGNGKQEKMRR
- protein production: failed

Sequence: MEHSSGTKLLLTLSLFFCLISGAEAADSHALDSGDVNLSELKAFDLLCKCETWGIVNTVSLSSTGNYLVAGGFDRNVSLFDSRGTQLWNYKTEDIVYTVSISSDGSRIVAGSNDKKVYFFNREGDLLWSHKTGGNINSVAVSSNGLYVAAGGEDGKVYFMNSAGKLLWSFDSEAAVRSIAISRDGTYVAVGNANNYVYLFDSEGKTIWNRKTGSLINCVSMTPYAYYVAAGGSNYNVYLFDRKGEFSWMNNPGYWVSSVSLTTNGAYLAAGSFDDMIYLFNRTGGKIWDYKAKDDVYAVEISADSSFIAAGSWDDTLYVLNMDGEELWNYNCGGNINSLDVSRDSTTIAVGSDAGAVYLFERNPTAFALLLGDESFLPEETTKETDTSLAEKTIKPIEEETAVTGGVENKVEDAPATSSSVSGNPKTGENPGSEELPTEESSLKLLEKFDSIKFPAALLLGALAGTVFFLKRRLVKYHEKNDENLEDLEEKDIRE
- protein production: failed

Sequence: MEIAPSTSRFKLYDQFELLEFPDKYVVKPIESPEEGFSVNRRDGNIKPLDENASSGSPTRVSTIYGVGGTIRLLAGTYLLVITSREEVGNFLGLPIFRVTAMKFLPCNEALRFATAQEKKDETYFRTLLQALETTPGLYFSYETDLTLNLQRRCKLAEGWNRKPMWKQADPRYVWNWHLLEDLIECKLDGFIIPILQGSYQVAELKLKNSPAVVSIMSRRCTRRLGTRMWRRGANLEGDAANFVESEQIVEINGFKFSLLQVRGSIPLLWEQIVDLSYKPRLKINKHEETPKVVQRHFHDLCQRYGEIMAVDLTDQHGDEGALSKAYATEMEKLPDVRYVSFDFHQVCGTTNFDNLGVLYEQIGDEFEKQGYFLVDADENILEEQKGVIRSNCIDCLDRTNVTQSFMGQKSLNLQLQRIGVCDSTECISTFEDDYTKFRTIWAEQGDEVSLQYAGTYALKGDLVRYGKQTMTGAIKDGLSAMSRYYLNNFQDGVRQDALDLISGRYTVGTHSPSQLQPIGSQPSFLPVASALLIGGVTVTSFTIHQAGRNTQQYLASALWAGVTAGVVAMIKANGRHLTSRPRLCHLI
- protein production: failed

Sequence: MEIGLSLGLKSDEGGLKLSLSECGCHVEDITIELEGGASWFYQGMVNAFKDQIGSSVESTIAKKLTEGVSDLDSFLQSLPKEIPVDDNADLNVTFTSDPILRNSSITFEIDGLFTKGETNQVLKSFFKKSVSLVICPGNSKMLGISVDEAVFNSAAALYYNADFVQWVVDKIPEQSLLNTARWRFIIPQLYKKYPNQDMNLNISLSSPPLVKISEQYVGANVNADLVINVLDANQVIPVACISLMIRGSGALRVMGNNLGGSVSLEDFSMSLKWSNIGNLHLHLLQPIVWTVIQTVFVPYANDHLEKGFPLPIMHGFTLQNAEIICSESEITVCSDVAYLDSSQQPQWL
- protein production: failed

Sequence: MEIGRVVGNVWATRKDEKLNGQKFLIVKLLVSKDKEKEGLFVAADNAGAGIGDIVLITKGGAARQSIGNREVPIDAAIVGIVDSIDIEEDLEHHHHHH
- protein production: not failed

Sequence: MEIGVSGASGQLGKAVLAELAARGAGHRVVGISRTPERVPAPAQGRLGDYDRAETLLQAYRGLDRLLLIPSADLGPGVRGRQFTAAIDAAVRAGVKHIVMVSTAGTRELAEPALGAAYWVGEQRLVKTAPRWTILRMNYYAESFAQQAPMFLGSGILPGLGENRVAFVSRDDVAAAAAGILLGEGHAGAIYNATGPVALSGAQRAALVAELSGKPLRFAVSDEAPLRQGLAQAGLPGGFVDAVIDLEKSFVAGAFDVVTGDVARLAGREPRALRTLLADSLRPAVADA
- protein production: failed

Sequence: MEIHSSAAAEVFPVCRSLLGKLPAHSHNRSVAPTVCDYYPQIMKTYNSKMTTQHSSDIRNSQNISASFVTPHDAPVTSRKYVPKFNSNNHRIKTAAAFEKGSDIYHAVRPNYPNSVIELLNLSPNSRVLDIGCGTGKLTEQIAQQTSSVYALDPSKDMLDSFRSTLDIPSWQATAEQTAVSDSRFSTLTCAQTWHWVEPLAASAELDRISTDDAQLLLVWNTLDVSVPWVHRLSRIMHSGDTLAEGFIPHVAQPWELVSVLRGKHAQELYPDQIHTLAHTRSYWLRASEKTREKLTHNLSWYLTDHLELPSTSLVEIPYRFDAFLYKKALVKTQ
- protein production: failed
